Experimental data published in article PMC6702222, “Visualizing structural transitions of ligand-dependent gating of the TRPM2 channel” (Nature Communications, 2019).

Molecular target: the molecule itself
Test: cryo-EM structure; TRPM2DR in digitonin, Ca2+-free buffer, incubated with 1 mM EDTA (ligand-free); refined with C4 (~4.3 A) and C2 (~4.5 A) symmetry

B1: Danio rerio (zebrafish) transient receptor potential melastatin 2 channel, full-length wild type (natural protein, UniProt A0A0R4IMY7 1-1470, looked up)
chain: MDEAALEPTLVQTLAVSTAKGGRYLSLSPSFQRCSLASWIKENIKKKECCFYVEDGREGICKCGYPKVQHCDEAIKPEDYMGEQWDKHRHVRETPTDAFGDISFGGLGQKTGKYVRVSSDTSCENLYQLMTEQWKLRSPNLLISVTGGAKNFYIKTHLKDKFRRGLIKVAQTTGAWILTGGTHAGVMKHVGMAVRDYTLSSGSMEGQIVVIGVAPWGVIHNRSTLIHPEGRFPAYYSLDEQGQGRLSCLDINHTHFLLVDDGTQGHYGVEIELRARLEKLISKLSLGNRESGVTIPVVCVVLDGGPGTLNTIYNSMLNHTPCVVLEGSGRLADVIAHVASVPVSKVTMALINRLLKRFFMQEYKNFTELQIIEWTKKIQDILRMPHLLTVFRIDEDKNYDVDVAILQALLKASRSDEHAGRHCWERQLELAVAWNRVDIAESEIFTEESQWTSSDLHPAMFSALVGDKPEFVRLLLENGVCVREFLEREETLCELYSHLPSCFFLRKLAKRVQGGKMRRGQEPLPGSRKVCLSHVSEEVRHLLGSFTQPLYIASRYKPTKDDVRLKVPSKGALDLPCSGEEWSADTVWDPGRDLFLWAVVQNNRELAEIGWEQCRDCIAAALAASKILRKLAQESGEDDSEEATEMLELANHYEKQAIGVFSECHSWDAQRAQKLLIRISPSWGRSTCLWLALEAHDKSFIAHSGVQALLTQIWCGELSVDNPHWKVLLCMIFFPLIYTGFLTFRRDEDIQRQAERTEQQKLAMESVFAGQSDGKIKRHLRGFSQKSELKPLNCSSRLMSFLKSPQVKFYWNIASYFGFLWLFAVVLMIDFQTSPSWRELLLYVWLTSLVCEEIRQLYHDFDGSGFRRKAKMYIKDLWNILDVLSIVLFIAGLICRLQASDTVFYIGKVILCIDFIIFCLRLMAIFSISRTLGPKIIIVRRMMLDLFFFMFLLSIWVVAYGVAKQGILIENEERLNWIIRGAVYEPYITIFGNFPTNIDNTLFDISSCSVNASDPLKPKCPMLNADNTPVFPEWLTIMMLCVYLLFANILLLNLLIAIFNYTFQEVQDNTDTIWKFQRYELIKEYHSRPALPPPFILLSHLILFIRGVFLRDLPQRHKNFRQELEQTEEEELLSWEAYMKDNYLASTRQDESQSVEHRIHDTAEKVGAMSELLEREQEMVSATMAKRLARLEEQVSESAKALRWIIDALKSQGCKSKVQPPLMRSKSSDRDDGDSSGQETDDEEAPHMFARQLQYPDSTVRRFPVPEEKVSWEVNFSPYQPPVYNQQDSSESDTSALDKHRNPGGRTGIRGKGALNTLGPNHILHPIFTRWRDAEHKVLEFLAVWEDAEKRWALLGGPAQPDEPLAQVLERILGKKLNEKTKTLLKAGEEVYKGYVDDSRNTDNAWVETSIITLHCDKNTPLMADLNHMVESSLSSHQPLQWREVSSDACRCSYQREALRQIAHHHNTYF
notes: TRPM2, zebrafish (Danio rerio), NCBI XP_009303266.1, full-length wild type from a codon-optimized synthetic gene; Homo-tetramer in all cryo-EM reconstructions; also called TRPM2DR; TRPM2; source: for the ADPR/Ca2+ sample reconstituted into amphipol PMAL-C8
stoichiometry N: 4
